Assay results taken from patent US20200231654A1 (published 2020).
Where a chain is given by its changes, count along the chain named.

T1: Recombinant Human MMP-17 Protein, CF (human, UniProt Q9ULZ9 36-565)
T1 chain: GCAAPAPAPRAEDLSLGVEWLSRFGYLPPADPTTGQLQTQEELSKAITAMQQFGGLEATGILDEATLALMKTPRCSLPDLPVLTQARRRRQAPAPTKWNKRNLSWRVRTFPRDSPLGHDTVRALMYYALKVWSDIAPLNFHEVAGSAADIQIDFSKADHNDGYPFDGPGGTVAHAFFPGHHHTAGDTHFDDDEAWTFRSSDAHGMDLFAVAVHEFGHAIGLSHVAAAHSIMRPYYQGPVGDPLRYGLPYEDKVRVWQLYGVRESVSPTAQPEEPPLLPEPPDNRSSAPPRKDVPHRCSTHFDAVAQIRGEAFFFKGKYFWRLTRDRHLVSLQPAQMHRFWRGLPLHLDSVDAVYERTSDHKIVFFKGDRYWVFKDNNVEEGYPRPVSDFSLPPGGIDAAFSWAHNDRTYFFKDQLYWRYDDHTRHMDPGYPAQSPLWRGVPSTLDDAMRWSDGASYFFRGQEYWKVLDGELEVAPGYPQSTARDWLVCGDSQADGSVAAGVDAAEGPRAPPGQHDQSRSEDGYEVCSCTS

T2: MMP-7 (catalytic domain) (human), (recombinant) (human, UniProt P09237 95-267)
T2 chain: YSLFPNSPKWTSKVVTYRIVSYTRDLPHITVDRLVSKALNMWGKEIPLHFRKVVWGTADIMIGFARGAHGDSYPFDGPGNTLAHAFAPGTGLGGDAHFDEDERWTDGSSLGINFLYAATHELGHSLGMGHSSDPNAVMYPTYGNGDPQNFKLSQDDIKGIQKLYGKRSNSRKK

T3: APMA-activated human MMP-1 enzyme active domain (human, UniProt P03956 100-269)
T3 chain: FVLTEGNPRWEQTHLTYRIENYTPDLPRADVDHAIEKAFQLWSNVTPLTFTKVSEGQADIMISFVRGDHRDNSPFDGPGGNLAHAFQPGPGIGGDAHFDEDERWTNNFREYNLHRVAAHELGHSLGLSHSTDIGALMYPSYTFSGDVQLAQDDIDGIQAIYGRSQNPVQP

T4: ADAM17 (catalytic domain) (human), (recombinant) (His-tag) (human, UniProt P78536 215-477)
T4 chain: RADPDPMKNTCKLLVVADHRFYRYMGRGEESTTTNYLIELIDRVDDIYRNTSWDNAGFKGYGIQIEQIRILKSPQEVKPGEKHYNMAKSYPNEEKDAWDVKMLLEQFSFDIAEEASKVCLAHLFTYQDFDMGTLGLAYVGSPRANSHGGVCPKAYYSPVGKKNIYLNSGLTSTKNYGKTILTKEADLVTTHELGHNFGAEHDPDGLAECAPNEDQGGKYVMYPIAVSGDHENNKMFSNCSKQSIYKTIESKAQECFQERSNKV

T5: MMP-2, active, Human, Recombinant, CHO Cells (human, UniProt P08253 110-660)
T5 chain: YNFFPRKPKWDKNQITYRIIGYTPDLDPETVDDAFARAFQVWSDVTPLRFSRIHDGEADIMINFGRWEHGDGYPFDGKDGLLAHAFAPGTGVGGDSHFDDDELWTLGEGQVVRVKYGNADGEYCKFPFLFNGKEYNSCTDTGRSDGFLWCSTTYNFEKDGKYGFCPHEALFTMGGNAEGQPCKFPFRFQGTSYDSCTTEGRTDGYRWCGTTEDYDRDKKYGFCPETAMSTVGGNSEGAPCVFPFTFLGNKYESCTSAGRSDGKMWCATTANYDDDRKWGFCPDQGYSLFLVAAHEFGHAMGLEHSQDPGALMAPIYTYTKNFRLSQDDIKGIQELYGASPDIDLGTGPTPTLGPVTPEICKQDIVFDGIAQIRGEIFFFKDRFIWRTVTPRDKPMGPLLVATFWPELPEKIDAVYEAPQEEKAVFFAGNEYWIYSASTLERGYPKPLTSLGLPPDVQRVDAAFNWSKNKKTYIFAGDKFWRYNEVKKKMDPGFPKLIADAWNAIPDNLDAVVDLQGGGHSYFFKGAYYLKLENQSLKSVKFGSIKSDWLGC

B1: active MMP-9-binding peptide M91004 (designed binder)
chain: GSGMKETAAAKFERQHMDSPDLGTDDDDKAMADIGSANSDPQFGLFSKYRTPNCRQRKGPSCQMAFQPVCGSDMSTYANECTLCMKIREGGHNIKIIRNGPCGASAAA
B2: active MMP-9-binding peptide M91005 (designed binder)
chain: B1 chain with Q56K, K58G, A65S, F66Y, Q67N
B3: active MMP-9-binding peptide M91010 (designed binder)
chain: B1 chain with Q56K, R57V, K58G, G59E, S61A, A65S, Q67N
B4: active MMP-9-binding peptide M91011 (designed binder)
chain: B1 chain with R55M, Q56M, R57Y, G59Y, P60A, S61Q, Q63S, M64H, A65K, F66S
B5: active MMP-9-binding peptide M91001 (designed binder)
chain: B1 chain with R55Q, Q56R, R57G, K58I, A65S, F66Y, Q67K
B6: active MMP-9-binding peptide M91012 (designed binder)
chain: B1 chain with Q56V, K58G, A65S, Q67N
B7: active MMP-9-binding peptide M91002 (designed binder)
chain: B1 chain with Q56T, R57G, K58R, S61A, A65G
B8: active MMP-9-binding peptide M91014 (designed binder)
chain: GSGMKETAAAKFERQHMDSPDLGTDDDDKAMADIGSANSDPQFGLFSKYRTPNCVMYKYAQCSHKYKPVCGSDMSTYANECTLCMKIREGGHNIKIIRNGPCGASAAA

Legend:
[1] = biological target: MMP-10 (catalytic domain) (human), (recombinant) (human, UniProt P09238 99-266); test: enzyme inhibition
[2] = biological target: MT2-MMP, Catalytic Domain, Human, Recombinant, E. coli (human, UniProt P51511 132-304); test: enzyme inhibition
[3] = biological target: T1, Recombinant Human MMP-17 Protein, CF; test: enzyme inhibition
[4] = biological target: MMP14 Recombinant Protein (human, UniProt P50281 112-287); test: enzyme inhibition
[5] = biological target: Recombinant Human MMP-16/MT3-MMP Protein, CF (human, UniProt P51512 32-564); test: enzyme inhibition
[6] = biological target: human MMP-3 activated by APMA (human, UniProt P08254 100-477); test: enzyme inhibition
[7] = biological target: T2, MMP-7 (catalytic domain) (human), …; test: enzyme inhibition
[8] = biological target: T3, APMA-activated human MMP-1 enzyme …; test: enzyme inhibition
[9] = biological target: T4, ADAM17 (catalytic domain) (human), …; test: enzyme inhibition
[10] = biological target: MMP-12 (catalytic domain) (human), (recombinant) (human, UniProt P39900 106-263); test: enzyme inhibition
[11] = biological target: APMA-activated human MMP-8 enzyme active domain (human, UniProt P22894 101-262); test: enzyme inhibition
[12] = biological target: APMA-activated human MMP-13 enzyme active domain (human, UniProt P45452 104-274); test: enzyme inhibition
[13] = biological target: T5, MMP-2, active, Human, Recombinant, CHO …; test: enzyme inhibition
[14] = biological target: active mMMP-9(cat)_FLAG_Avi (UniProt P41245 108-450); test: enzyme inhibition; substrate peptide
[15] = biological target: active hMMP-9(cat)_His6 (UniProt P14780 107-449); test: enzyme inhibition; substrate gelatin
Chain of active hMMP-9(cat)_His6 (P14780 107-449): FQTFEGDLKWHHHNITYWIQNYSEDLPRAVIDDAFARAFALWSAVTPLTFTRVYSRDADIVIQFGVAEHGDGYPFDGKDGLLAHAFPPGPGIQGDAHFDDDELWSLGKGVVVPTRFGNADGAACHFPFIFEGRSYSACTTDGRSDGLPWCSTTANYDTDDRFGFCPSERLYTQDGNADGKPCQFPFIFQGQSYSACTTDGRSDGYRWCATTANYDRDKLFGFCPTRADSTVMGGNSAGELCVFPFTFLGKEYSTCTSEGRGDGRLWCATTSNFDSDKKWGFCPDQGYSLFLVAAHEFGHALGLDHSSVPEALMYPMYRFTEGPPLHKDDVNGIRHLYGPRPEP

Chain of MMP-10 (catalytic domain) (human), (recombinant) (P09238 99-266): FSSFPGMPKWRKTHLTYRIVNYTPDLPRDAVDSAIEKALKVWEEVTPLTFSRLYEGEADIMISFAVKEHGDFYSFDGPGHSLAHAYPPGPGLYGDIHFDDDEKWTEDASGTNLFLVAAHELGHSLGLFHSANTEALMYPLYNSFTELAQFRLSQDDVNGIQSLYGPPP
Chain of active mMMP-9(cat)_FLAG_Avi (P41245 other isoform, or with tags, fused parts or gaps): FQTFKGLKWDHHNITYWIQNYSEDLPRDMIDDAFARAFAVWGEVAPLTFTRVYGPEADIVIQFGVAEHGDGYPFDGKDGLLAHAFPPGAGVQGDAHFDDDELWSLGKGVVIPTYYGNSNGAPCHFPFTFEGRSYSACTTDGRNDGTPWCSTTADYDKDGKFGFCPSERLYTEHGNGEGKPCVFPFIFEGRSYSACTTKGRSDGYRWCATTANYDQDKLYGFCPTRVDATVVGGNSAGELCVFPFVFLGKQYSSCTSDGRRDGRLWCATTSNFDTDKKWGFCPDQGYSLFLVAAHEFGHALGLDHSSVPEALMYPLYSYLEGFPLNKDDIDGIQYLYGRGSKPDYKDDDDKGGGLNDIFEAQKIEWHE
Chain of human MMP-3 activated by APMA (P08254 100-477): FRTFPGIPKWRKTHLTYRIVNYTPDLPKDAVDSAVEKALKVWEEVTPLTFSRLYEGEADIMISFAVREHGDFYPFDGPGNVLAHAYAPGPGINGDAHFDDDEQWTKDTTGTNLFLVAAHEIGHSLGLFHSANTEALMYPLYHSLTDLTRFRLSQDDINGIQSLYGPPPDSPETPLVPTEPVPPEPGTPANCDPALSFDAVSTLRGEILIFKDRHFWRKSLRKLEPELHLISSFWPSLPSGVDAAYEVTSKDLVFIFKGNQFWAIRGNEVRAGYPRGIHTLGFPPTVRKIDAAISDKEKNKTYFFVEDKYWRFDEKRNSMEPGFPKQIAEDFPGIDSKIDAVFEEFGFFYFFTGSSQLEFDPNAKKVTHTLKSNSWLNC
Chain of APMA-activated human MMP-8 enzyme active domain (P22894 101-262): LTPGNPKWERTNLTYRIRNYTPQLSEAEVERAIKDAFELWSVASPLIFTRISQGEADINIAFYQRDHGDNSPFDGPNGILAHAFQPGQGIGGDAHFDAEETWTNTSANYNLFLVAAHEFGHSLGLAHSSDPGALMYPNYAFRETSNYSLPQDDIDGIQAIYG
Chain of Recombinant Human MMP-16/MT3-MMP Protein, CF (P51512 32-564): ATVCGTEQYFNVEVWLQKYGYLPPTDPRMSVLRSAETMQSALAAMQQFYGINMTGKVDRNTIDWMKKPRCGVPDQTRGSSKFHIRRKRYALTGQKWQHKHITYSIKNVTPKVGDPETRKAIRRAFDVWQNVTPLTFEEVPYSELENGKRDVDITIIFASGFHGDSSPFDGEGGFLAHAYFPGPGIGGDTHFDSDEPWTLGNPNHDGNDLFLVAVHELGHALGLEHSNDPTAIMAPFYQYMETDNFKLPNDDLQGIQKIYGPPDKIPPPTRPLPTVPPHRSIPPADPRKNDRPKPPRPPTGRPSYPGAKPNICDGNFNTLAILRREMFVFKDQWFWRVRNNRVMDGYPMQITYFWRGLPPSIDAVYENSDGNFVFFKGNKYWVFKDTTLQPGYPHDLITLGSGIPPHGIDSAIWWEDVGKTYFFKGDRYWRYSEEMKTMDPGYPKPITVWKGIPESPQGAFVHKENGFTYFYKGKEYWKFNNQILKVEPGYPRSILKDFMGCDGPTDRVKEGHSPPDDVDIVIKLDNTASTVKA
Chain of MT2-MMP, Catalytic Domain, Human, Recombinant, E. coli (P51511 132-304): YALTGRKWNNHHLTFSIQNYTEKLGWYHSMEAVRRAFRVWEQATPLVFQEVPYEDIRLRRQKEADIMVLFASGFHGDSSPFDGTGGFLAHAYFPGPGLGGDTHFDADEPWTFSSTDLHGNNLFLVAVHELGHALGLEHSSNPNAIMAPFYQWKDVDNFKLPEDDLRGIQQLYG
Chain of MMP-12 (catalytic domain) (human), (recombinant) (P39900 106-263): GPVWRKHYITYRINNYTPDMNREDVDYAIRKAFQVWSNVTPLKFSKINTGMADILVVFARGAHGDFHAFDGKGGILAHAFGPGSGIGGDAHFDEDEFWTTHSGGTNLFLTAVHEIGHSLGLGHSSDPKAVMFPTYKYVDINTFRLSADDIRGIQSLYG

Row | Binder | IC50 [1] [nM] | IC50 [2] [nM] | IC50 [3] [nM] | IC50 [4] [nM] | IC50 [5] [nM] | IC50 [6] [nM] | IC50 [7] [nM] | IC50 [8] [nM] | IC50 [9] [nM] | IC50 [10] [nM] | IC50 [11] [nM] | IC50 [12] [nM] | IC50 [13] [nM] | IC50 [14] [nM] | IC50 [15] [nM]
1 | B1 | > 1000 | > 1000 | > 1000 | > 1000 | > 1000 | > 1000 | > 1000 | > 1000 | > 1000 | > 1000 | > 1000 | > 1000 | > 1000 | 7.1 | 7.6
2 | B2 | > 1000 | > 1000 | > 1000 | > 1000 | > 1000 | > 1000 | > 1000 | > 1000 | > 1000 | > 1000 | > 1000 | > 1000 | > 1000 | 8.4 | 8.2
3 | B3 | > 1000 | > 1000 | > 1000 | > 1000 | > 1000 | > 1000 | > 1000 | > 1000 | > 1000 | > 1000 | > 1000 | > 1000 | > 1000 | 5 | 5.8
4 | B4 | > 1000 | > 1000 | > 1000 | > 1000 | > 1000 | > 1000 | > 1000 | > 1000 | > 1000 | > 1000 | > 1000 | > 1000 | > 1000 | 21 | 
5 | B5 | > 1000 | > 1000 | > 1000 | > 1000 | > 1000 | > 1000 | > 1000 | > 1000 | > 1000 | > 1000 | > 1000 | > 1000 | > 1000 | 4.1 | 8.3
6 | B6 | > 1000 | > 1000 | > 1000 | > 1000 | > 1000 | > 1000 | > 1000 | > 1000 | > 1000 | > 1000 | > 1000 | > 1000 | > 1000 | 7.8 | 8.6
7 | B7 | > 1000 | > 1000 | > 1000 | > 1000 | > 1000 | > 1000 | > 1000 | > 1000 | > 1000 | > 1000 | > 1000 | > 1000 | > 1000 | 5.1 | 8.5
8 | B8 | > 1000 | > 1000 | > 1000 | > 1000 | > 1000 | > 1000 | > 1000 | > 1000 | > 1000 | > 1000 | > 1000 | > 1000 | > 1000 | 9.2 | 3
